# Experiments:
# [1] = target: GP[change] with 8D insertion after residue A309 (Ebola virus)
# [2] = target: GP[change] with 12D insertion after residue A309 (Ebola virus)
substance,measurement,setting,value
mAb114 (antibody),fold increase in binding against WT-GPΔmucin,[1],2 fold
same,fold increase in binding against WT-GPΔmucin,[2],2 fold
